Biological target: β:C12A yeast αβ-tubulin (yeast) (UniProt P09733)
Assay: microtubule elongation rates by time-lapse DIC microscopy

Substance: β:C12A yeast αβ-tubulin (from UniProt P09733 1-447; P02557 1-457) (complex)
- affinity of the interactions that drive elongation (extrapolation to the x-axis): 42 nM
- kon: 1.22e+07 M⁻¹ s⁻¹

Source: paper PMC5221584
